From patent publication US20150023971A1 (H LUNDBECK A S, published 2015)

T1: purified human Sortilin extracellular domain (produced in stably transfected CHO cells) (human, UniProt Q99523 78-755)
T1 construct: also called immobilized Sortilin
T1 sequence: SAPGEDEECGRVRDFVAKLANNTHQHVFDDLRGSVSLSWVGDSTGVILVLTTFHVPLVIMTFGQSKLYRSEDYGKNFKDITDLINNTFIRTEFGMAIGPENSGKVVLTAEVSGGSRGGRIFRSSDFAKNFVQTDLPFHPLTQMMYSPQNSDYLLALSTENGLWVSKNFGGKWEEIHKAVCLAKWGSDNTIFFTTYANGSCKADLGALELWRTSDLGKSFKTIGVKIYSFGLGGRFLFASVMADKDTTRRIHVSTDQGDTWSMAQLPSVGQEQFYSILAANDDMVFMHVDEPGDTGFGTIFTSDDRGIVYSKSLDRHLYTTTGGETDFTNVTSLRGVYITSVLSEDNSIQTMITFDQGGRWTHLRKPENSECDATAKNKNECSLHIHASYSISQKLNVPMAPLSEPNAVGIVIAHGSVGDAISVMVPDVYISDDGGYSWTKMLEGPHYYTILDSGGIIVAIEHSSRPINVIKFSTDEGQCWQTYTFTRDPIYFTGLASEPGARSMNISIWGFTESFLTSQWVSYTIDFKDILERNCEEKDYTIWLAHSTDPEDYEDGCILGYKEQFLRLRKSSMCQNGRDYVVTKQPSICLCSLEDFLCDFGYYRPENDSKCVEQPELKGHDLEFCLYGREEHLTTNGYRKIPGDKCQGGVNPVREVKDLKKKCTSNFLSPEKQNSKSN

B1: Mature murine NGF (Austral Biologicals) (ligand, mouse, UniProt P01139 122-241, looked up)
chain: SSTHPVFHMGEFSVCDSVSVWVGDKTTATDIKGKEVTVLAEVNINNSVFRQYFFETKCRASNPVESGCRGIDSKHWNSYCTTTHTFVKALTTDEKQAAWRFIRIDTACVCVLSRKATRRG
notes: mature; Bought protein
B2: Mature recombinant human BDNF (Promega #G1491) (ligand)
chain: HSDPARRGELSVCDSISEWVTAADKKTAVDMSGGTVTVLEKVPVSKGQLKQYFYETKCNPMGYTKEGCRGIDKRHWNSQCRTTQSYVRALTMDSKKRIGWRFIRIDTSCVCTLTIKRGR
notes: Bought protein; also called mature BDNF
B3: recombinant human p75 neurotrophin receptor/Fc chimera (R&D systems) (Fc fusion, UniProt P08138 29-250, looked up)
chain: KEACPTGLYTHSGECCKACNLGEGVAQPCGANQTVCEPCLDSVTFSDVVSATEPCKPCTECVGLQSMSAPCVEADDAVCRCAYGYYQDETTGRCEACRVCEAGSGLVFSCQDKQNTVCEECPDGTYSDEANHVDPCLPCTVCEDTERQLRECTRWADAECEEIPGRWITRSTPPEGSDSTAPSTQEPEAPPEQDLIASTVAGVVTTVMGSSQPVVTRGTTDN
notes: Bought from R&D systems; also called p75-IgG-Fc chimeric protein; p75^NTR; not shown: IgG Fc part of the bought chimera

Assays:
[1] = target: T1, purified human Sortilin extracellular …; assay: SPR (Biacore), 50-500 nM NGF over immobilised Sortilin extracellular domain
[2] = target: T2, recombinant human TrkA/Fc chimera (R&D systems) (human, UniProt P04629-2 33-407); assay: SPR (Biacore), 50-500 nM NGF over immobilised TrkA-IgG-Fc
T2 construct: Bought from R&D systems; also called TrkA-IgG-Fc; not shown: IgG Fc part of the bought chimera
T2 sequence (P04629 other isoform, or with tags, fused parts or gaps mutant): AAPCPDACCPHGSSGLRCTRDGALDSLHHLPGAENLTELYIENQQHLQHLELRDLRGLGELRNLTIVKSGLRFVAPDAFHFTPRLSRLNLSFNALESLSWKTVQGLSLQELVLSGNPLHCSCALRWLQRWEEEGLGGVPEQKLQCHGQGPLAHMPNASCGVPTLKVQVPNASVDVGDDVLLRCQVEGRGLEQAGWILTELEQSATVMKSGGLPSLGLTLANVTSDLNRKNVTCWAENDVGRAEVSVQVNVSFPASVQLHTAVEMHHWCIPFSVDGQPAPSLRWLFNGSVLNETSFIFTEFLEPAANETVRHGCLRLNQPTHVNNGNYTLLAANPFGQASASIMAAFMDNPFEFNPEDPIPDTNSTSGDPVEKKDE

[3] = target: T1, purified human Sortilin extracellular …; assay: SPR (Biacore), NGF at 200 and 500 nM over immobilised Sortilin extracellular domain; the text gives ~8 nM for this pair
[4] = target: B3; assay: SPR (Biacore), 50-500 nM NGF over immobilised p75-IgG-Fc
[5] = target: T1, purified human Sortilin extracellular …; assay: SPR (Biacore), immobilised Sortilin extracellular domain (94 fmol/mm2); mature BDNF from Promega (#G1491), lower panel of FIG. 7
[6] = target: T1, purified human Sortilin extracellular …; assay: SPR (Biacore), immobilised Sortilin extracellular domain; other preparations of mature BDNF
[7] = target: T3, Human recombinant proNGF (produced and purified in E. coli) (human, UniProt P01138 19-241); assay: SPR (Biacore), 25-500 nM proNGF over immobilised p75-IgG-Fc
T3 construct: Made as in Rattenholl et al 2001
T3 sequence (P01138 other isoform, or with tags, fused parts or gaps limits assumed): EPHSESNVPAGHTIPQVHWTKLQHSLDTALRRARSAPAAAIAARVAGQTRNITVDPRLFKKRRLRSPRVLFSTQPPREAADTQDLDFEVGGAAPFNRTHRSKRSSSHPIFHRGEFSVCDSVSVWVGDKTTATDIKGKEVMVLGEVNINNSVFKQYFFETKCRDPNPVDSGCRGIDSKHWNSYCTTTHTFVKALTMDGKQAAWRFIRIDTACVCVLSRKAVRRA

Binder B1 has a Kd [1] of ~8 nM, a Kd [2] of ~2 nM and a Kd [3] of ~87 nM. It also gave a Kd [4] of ~1 nM.

With B2 the Kd [5] was ~40 nM and the Kd [6] was 10 nM.

B3 was tested, and the Kd [7] was ~12 nM.
